1 substance from patent US7205273B2, “Fusogenic liposomes” (The University of British Columbia, priority 1996, dated 2007) can be followed below.

Data set [1] in a line: 31P-NMR phase behaviour of equimolar DOPE:cholesterol mixtures with bilayer stabilizing component. It counts as physicochemical. The settings on record: DOPE:cholesterol:BSC 1:1:0.25, 0 to 60° C. The procedure:
Lipid components were mixed in 1–2 ml of benzene:methanol (95:5, v/v) and then lyophilized for a minimum of 5 hours at a pressure of <60 millitorr using a Virtis lyophilizer equipped with a liquid N2 trap. Multilamellar vesicles (MLVs) were prepared by hydrating the dry lipid mixtures in 150 mM NaCl, buffered with 10 mM Hepes-NaOH, pH 7.4 (Hepes-buffered saline, HBS). Mixtures were vortexed to assist hydration. To produce large unilamellar vesicles (LUVs), MLVs were first frozen in liquid nitrogen and then thawed at 30° C. five times. LUVs were produced by extrusion of the frozen and thawed MLVs ten times through 2 stacked polycarbonate filters of 100 nm pore size at 30° C. and pressures of 200–500 psi (Hope, et al., Biochim. Biophys. Acta, 812:55–65 (1985)).
^31P-NMR spectra were obtained using a temperature controlled Bruker MSL200 spectrometer operating at 81 MHz. Free induction decays were accumulated for 2000 transients using a 4 μs, 90° pulse, 1 sec. interpulse delay, 20 KHz sweep width and Waltz decoupling. A 50 Hz line broadening was applied to the data prior to Fourier transformation. Samples were allowed to equilibrate at the indicated temperature for 30 minutes prior to data accumulation. Lipid concentrations of 30–70 mM were used.

Data set [2] is described as follows: Lipid mixing (FRET) assay, NaCl-induced fusion of DOPE:DODAC liposomes. To be noted: DOPE:DODAC:PEG-lipid 83:15:2, 300 mM NaCl, POPC sink, 37° C. The method, then:
FIG. 16 illustrates the inhibition of fusion of DOPE:DODAC liposomes by PEG-PE. Liposomes were prepared from either DOPE:DODAC (85:15) or DOPE:DODAC:DMPE-PEG2000 (83:15:2). Fusion was assayed as described under FIG. 1 using 300 mM NaCl.
FIG. 17 illustrates the recovery fusogenic activity after PEG removal. Liposomes were prepared from either DOPE:DODAC:ceramide(C8:0)-PEG2000, 83:15:2 or […], 38:45:15:2. Fusion was assayed as described under FIG. 2 except that at the indicated times a 30 fold excess (over donors) of liposomes composed of POPC or POPC:cholesterol (55:45) was added.
FIG. 18 illustrates the effect of the lipid anchor on the rate of PEG-lipid removal. […] At zero time a 13-fold excess (over labelled vesicles) of POPC liposomes was added and the fluorescence intensity was measured at the indicated times. At the end of the assay Triton X-100 (0.5% final) was added to eliminate energy transfer and the % fusion was calculated from the change in efficiency of energy transfer. Maximum fusion was calculated from a standard curve of energy transfer efficiency against the molar fraction of Rh-PE in the membrane assuming complete mixing of labelled and unlabelled liposomes.
Lipid mixing was measured by a modification of the fluorescence resonance energy transfer (FRET) assay of Struck, et al. (Biochemistry, 20:4093–4099 (1981)). […]

Take “1-O-methyl-(poly(ethoxy)-O-succinyl-O-(egg)ceramide [egg ceramide-PEG2000]”: in data set [1], the “phase preference by 31P-NMR” value is “exclusively bilayer up to 60 °C”. Moreover, the “time for 50% maximal fusion” value in data set [2] is given as “over 20 hr”.
